Results taken from publication PMC3742642 (Structure (London, England : 1993), 2013).

Tests used:
[1] = molecular target: the molecule itself; assay: SEC
[2] = molecular target: the molecule itself; assay: crystal structure
[3] = molecular target: the molecule itself; assay: cryo-EM structure

B1: bacteriophage ϕ6 capsid protein P1, full length, C-terminal His6-tag (natural protein, UniProt P11126 1-769, looked up)
chain: MFNLKVKDLNGSARGLTQAFAIGELKNQLSVGALQLPLQFTRTFSASMTSELLWEVGKGNIDPVMYARLFFQYAQAGGALSVDELVNQFTEYHQSTACNPEIWRKLTAYITGSSNRAIKADAVGKVPPTAILEQLRTLAPSEHELFHHITTDFVCHVLSPLGFILPDAAYVYRVGRTATYPNFYALVDCVRASDLRRMLTALSSVDSKMLQATFKAKGALAPALISQHLANAATTAFERSRGNFDANAVVSSVLTILGRLWSPSTPKELDPSARLRNTNGIDQLRSNLALFIAYQDMVKQRGRAEVIFSDEELSSTIIPWFIEAMSEVSPFKLRPINETTSYIGQTSAIDHMGQPSHVVVYEDWQFAKEITAFTPVKLANNSNQRFLDVEPGISDRMSATLAPIGNTFAVSAFVKNRTAVYEAVSQRGTVNSNGAEMTLGFPSVVERDYALDRDPMVAIAALRTGIVDESLEARASNDLKRSMFNYYAAVMHYAVAHNPEVVVSEHQGVAAEQGSLYLVWNVRTELRIPVGYNAIEGGSIRTPEPLEAIAYNKPIQPSEVLQAKVLDLANHTTSIHIWPWHEASTEFAYEDAYSVTIRNKRYTAEVKEFELLGLGQRRERVRILKPTVAHAIIQMWYSWFVEDDRTLAAARRTSRDDAEKLAIDGRRMQNAVTLLRKIEMIGTTGIGASAVHLAQSRIVDQMAGRGLIDDSSDLHVGINRHRIRIWAGLAVLQMMGLLSRSEAEALTKVLGDSNALGMVVATTDIDPSL
- stoichiometry N [1]: 2
- stoichiometry N [2]: 5

B2: bacteriophage ϕ6 capsid protein P1, wild type, in P1247 procapsids (natural protein)
chain: FNLKVKDLNGSARGLTQAFAIGELKNQLSVGALQLPLQFTRTFSASMTSELLWEVGKGNIDPVMYARLFFQYAQAGGALSVDELVNQFTEYHQSTACNPEIWRKLTAYITGSSNRAIKADAVGKVPPTAILEQLRTLAPSEHELFHHITTDFVCHVLSPLGFILPDAAYVYRVGRTATYPNFYALVDCVRASDLRRMLTALSSVDSKMLQATFKAKGALAPALISQHLANAATTAFERSRGNFDANAVVSSVLTILGRLWSPSTPKELDPSARLRNTNGIDQLRSNLALFIAYQDMVKQRGRAEVIFSDEELSSTIIPWFIEAMSEVSPFKLRPINETTSYIGQTSAIDHMGQPSHVVVYEDWQFAKEITAFTPVKLANNSNQRFLDVEPGISDRMSATLAPIGNTFAVSAFVKNRTAVYEAVSQRGTVNSNGAEMTLGFPSVVERDYALDRDPMVAIAALRTGIVDESLEARASNDLKRSMFNYYAAVMHYAVAHNPEVVVSEHQGVAAEQGSLYLVWNVRTELRIPVGYNAIEGGSIRTPEPLEAIAYNKPIQPSEVLQAKVLDLANHTTSIHIWPWHEASTEFAYEDAYSVTIRNKRYTAEVKEFELLGLGQRRERVRILKPTVAHAIIQMWYSWFVEDDRTLAAARRTSRDDAEKLAIDGRRMQNAVTLLRKIEMIGTTGIGASAVHLAQSRIVDQMAGRGLIDDSSDLHVGINRHRIRIWAGLAVLQMMGLLSRSEAEALTKVLGDSNALGMVVATTDIDPSL
- stoichiometry N [3]: 120
